Laboratory results as given in the supplement of paper PMC10065799, “High-throughput profiling of sequence recognition by tyrosine kinases and SH2 domains using bacterial peptide display” (eLife, 2023).

Legend:
[1] = target: Hck (UniProt P08631); test: phosphorylation enrichment, bacterial display (enrichment ratio); higher = better substrate or ligand; peptides without Tyr show the background
[2] = system: Fer (mouse); test: as above
[3] = target: FGFR1 (UniProt P11362); test: as above
[4] = target: Jak2 (UniProt O60674); test: as above
[5] = system: AncSZ; test: as above
[6] = target: FGFR3 (UniProt P22607); test: as above
[7] = target: MERTK (UniProt Q12866); test: as above
[8] = system: c-Abl (mouse); test: as above
[9] = system: c-Src; test: as above
[10] = target: Fes (UniProt P07332); test: as above
[11] = target: EPHB1 (UniProt P54762); test: as above
[12] = target: Fyn (UniProt P06241); test: as above
[13] = target: EPHB2 (UniProt P29323); test: as above
[14] = target: c-Src SH2; test: SH2 binding enrichment of the phosphorylated peptide, bacterial display (enrichment ratio); higher = better substrate or ligand; peptides without Tyr show the background
[15] = target: Grb2 SH2 (UniProt P62993); test: as above
[16] = target: SHP2-C SH2; test: as above
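Wherever SH2 binding enrichment of the phosphorylated peptide, bacterial display is given: peptide library displayed on the E. coli surface as eCPX fusions, selected cells deep-sequenced, score is each peptide's frequency after selection divided by its frequency in the input.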
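Wherever phosphorylation enrichment, bacterial display is given: 11-residue human phosphosite peptides and single-mutation variants displayed on the E. coli surface, counted by deep sequencing, each peptide's frequency after selection divided by its frequency in the unselected input library; frequency after pTyr selection over input frequency; kinase dosed for 20-30% of maximal phosphorylation in three min.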

Chain of MERTK (Q12866 whole entry, looked up): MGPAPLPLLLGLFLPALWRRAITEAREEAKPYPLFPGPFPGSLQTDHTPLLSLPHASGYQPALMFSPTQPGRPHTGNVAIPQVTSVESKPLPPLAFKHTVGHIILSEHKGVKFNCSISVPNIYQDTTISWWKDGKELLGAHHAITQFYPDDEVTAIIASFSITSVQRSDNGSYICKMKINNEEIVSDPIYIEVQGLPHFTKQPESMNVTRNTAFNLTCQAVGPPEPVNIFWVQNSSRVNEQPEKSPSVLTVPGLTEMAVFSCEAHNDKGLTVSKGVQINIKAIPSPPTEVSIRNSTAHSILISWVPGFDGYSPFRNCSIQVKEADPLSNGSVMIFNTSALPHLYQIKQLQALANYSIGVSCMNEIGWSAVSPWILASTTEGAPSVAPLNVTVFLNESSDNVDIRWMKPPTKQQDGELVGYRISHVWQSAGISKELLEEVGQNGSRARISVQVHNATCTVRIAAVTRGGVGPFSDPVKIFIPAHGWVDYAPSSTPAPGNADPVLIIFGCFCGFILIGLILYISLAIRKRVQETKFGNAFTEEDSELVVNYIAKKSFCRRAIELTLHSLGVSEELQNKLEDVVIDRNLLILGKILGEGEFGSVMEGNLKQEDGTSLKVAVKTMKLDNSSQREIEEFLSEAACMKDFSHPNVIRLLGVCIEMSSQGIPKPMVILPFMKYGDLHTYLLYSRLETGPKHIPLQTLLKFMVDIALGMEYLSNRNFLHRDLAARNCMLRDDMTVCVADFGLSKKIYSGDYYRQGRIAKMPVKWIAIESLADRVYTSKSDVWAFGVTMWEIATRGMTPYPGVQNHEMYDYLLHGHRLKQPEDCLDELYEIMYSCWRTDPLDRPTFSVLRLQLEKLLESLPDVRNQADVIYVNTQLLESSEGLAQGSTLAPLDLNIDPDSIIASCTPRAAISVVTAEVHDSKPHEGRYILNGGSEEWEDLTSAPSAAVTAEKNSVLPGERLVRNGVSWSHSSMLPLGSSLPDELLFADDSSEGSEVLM
Chain of EPHB2 (P29323 whole entry, looked up): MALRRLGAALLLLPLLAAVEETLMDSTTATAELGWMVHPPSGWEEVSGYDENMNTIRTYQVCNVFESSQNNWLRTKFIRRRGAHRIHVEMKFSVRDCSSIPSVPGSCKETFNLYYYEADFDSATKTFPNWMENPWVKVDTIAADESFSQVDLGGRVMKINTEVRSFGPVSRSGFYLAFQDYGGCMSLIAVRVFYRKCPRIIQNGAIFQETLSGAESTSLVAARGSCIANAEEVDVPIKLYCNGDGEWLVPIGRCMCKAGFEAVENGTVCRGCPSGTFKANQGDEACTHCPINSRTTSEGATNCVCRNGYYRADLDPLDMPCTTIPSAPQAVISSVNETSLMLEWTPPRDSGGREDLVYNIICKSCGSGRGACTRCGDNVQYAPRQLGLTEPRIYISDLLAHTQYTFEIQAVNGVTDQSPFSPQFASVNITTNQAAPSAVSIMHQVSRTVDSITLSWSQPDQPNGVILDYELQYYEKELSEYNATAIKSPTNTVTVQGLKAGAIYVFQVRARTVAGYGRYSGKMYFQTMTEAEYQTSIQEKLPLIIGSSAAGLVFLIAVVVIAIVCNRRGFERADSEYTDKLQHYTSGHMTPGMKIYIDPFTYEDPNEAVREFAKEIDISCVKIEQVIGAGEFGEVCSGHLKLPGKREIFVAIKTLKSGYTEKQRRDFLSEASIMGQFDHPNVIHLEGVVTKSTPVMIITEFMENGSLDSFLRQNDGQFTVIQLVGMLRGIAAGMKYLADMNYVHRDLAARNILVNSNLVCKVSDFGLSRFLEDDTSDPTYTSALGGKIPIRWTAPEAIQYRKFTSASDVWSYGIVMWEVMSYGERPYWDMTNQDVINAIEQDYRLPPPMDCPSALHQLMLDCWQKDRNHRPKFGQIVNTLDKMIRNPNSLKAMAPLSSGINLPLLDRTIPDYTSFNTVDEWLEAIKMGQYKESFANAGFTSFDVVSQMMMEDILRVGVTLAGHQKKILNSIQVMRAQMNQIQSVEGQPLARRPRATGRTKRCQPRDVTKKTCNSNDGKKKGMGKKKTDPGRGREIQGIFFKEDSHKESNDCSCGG
Chain of Jak2 (O60674 whole entry, looked up): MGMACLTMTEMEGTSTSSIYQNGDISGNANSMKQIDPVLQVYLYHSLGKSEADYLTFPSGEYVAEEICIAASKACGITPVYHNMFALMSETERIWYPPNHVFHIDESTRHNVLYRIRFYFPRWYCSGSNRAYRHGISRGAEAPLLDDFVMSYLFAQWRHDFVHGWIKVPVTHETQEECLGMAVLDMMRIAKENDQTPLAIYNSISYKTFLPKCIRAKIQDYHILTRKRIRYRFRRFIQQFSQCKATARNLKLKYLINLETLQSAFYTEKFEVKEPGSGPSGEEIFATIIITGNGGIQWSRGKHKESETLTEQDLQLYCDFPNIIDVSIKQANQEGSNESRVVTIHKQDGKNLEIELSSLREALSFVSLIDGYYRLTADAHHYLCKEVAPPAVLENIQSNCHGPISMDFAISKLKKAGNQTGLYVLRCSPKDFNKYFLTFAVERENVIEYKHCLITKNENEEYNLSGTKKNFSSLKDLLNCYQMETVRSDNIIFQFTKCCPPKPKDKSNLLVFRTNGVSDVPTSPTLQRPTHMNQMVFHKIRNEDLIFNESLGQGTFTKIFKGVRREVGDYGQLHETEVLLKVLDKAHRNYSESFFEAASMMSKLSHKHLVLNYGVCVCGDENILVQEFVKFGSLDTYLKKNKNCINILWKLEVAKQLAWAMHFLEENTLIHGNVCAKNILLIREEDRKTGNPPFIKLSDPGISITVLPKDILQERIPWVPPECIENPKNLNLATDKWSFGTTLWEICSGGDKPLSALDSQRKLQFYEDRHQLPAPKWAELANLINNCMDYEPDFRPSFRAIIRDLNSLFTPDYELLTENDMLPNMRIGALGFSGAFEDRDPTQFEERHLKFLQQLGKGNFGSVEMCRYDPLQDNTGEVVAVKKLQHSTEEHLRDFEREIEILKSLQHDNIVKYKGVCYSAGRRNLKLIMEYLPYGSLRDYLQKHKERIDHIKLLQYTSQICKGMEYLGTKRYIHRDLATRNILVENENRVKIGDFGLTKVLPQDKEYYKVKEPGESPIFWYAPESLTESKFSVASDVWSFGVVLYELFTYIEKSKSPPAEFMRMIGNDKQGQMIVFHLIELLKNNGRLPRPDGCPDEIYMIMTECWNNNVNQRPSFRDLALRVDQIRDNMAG
Chain of EPHB1 (P54762 whole entry, looked up): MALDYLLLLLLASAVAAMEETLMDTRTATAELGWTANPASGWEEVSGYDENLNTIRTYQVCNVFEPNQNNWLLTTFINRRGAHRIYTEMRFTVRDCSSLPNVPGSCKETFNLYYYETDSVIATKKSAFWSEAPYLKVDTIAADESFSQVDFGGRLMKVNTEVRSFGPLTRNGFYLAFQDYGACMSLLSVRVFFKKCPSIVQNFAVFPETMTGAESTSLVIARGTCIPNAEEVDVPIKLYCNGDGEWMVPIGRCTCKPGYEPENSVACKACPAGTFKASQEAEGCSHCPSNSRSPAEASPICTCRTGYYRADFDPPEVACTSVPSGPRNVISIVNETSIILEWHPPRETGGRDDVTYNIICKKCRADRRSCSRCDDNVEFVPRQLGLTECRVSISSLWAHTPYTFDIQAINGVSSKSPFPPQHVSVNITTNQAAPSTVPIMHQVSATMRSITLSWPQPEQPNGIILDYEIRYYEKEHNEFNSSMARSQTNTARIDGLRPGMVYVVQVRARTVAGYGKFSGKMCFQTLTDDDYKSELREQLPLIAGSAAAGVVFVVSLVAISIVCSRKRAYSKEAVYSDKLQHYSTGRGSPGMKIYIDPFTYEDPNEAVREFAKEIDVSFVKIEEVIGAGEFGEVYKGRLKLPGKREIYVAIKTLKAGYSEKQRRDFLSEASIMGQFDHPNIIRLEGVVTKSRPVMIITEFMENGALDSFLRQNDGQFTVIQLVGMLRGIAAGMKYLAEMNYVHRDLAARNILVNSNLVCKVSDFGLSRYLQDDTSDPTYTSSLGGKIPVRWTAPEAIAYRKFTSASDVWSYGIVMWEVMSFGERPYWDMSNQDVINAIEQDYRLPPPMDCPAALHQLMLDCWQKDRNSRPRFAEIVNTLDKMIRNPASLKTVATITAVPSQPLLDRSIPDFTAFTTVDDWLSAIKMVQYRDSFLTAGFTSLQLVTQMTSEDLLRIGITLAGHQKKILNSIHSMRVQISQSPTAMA
Chain of Grb2 SH2 (P62993 whole entry, looked up): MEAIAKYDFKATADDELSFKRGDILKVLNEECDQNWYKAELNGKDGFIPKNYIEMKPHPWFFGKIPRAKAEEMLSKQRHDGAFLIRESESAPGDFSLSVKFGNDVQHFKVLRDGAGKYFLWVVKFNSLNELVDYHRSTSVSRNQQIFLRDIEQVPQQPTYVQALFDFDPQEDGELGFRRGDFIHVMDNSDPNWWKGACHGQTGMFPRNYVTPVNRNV
Chain of Hck (P08631 whole entry, looked up): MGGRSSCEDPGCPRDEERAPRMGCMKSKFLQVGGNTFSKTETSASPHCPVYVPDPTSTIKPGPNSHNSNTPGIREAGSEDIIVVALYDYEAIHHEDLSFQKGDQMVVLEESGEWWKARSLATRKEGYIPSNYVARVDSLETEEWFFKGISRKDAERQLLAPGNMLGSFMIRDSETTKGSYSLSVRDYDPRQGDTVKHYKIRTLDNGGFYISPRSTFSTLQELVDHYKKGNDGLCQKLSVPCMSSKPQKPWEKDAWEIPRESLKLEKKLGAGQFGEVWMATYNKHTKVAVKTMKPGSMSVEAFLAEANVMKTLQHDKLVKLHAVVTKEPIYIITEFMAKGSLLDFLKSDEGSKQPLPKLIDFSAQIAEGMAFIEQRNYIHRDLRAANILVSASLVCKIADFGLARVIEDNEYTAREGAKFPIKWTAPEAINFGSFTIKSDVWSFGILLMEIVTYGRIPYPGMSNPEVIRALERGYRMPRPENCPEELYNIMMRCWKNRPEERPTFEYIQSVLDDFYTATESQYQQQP

Sequence | phosphorylation enrichment [1] | phosphorylation enrichment [2] | phosphorylation enrichment [3] | phosphorylation enrichment [4] | phosphorylation enrichment [5] | phosphorylation enrichment [6] | phosphorylation enrichment [7] | phosphorylation enrichment [8] | phosphorylation enrichment [9] | phosphorylation enrichment [10] | phosphorylation enrichment [11] | phosphorylation enrichment [12] | phosphorylation enrichment [13] | SH2 binding enrichment [14] | SH2 binding enrichment [15] | SH2 binding enrichment [16]
TTASRYLKVSD [MYOM2_Y871_N869S] | 0.311 | 0.377 | 0.366 | 0.434 | 0.489 | 0.467 | 0.313 | 0.54 | 0.362 | 0.636 | 0.347 | 0.373 | 0.293 | 0.515 | 0.534 | 0.54
TTKAKYKTPTF [PLD2_Y573_YF] | 0.4 | 0.357 | 0.224 | 0.416 | 0.417 | 0.309 | 0.374 | 0.551 | 0.39 | 0.476 | 0.305 | 0.326 | 0.235 | 0.509 | 0.778 | 0.693
TTPYNYSYIFK [RAB14_Y8_A4T] | 0.861 | 0.97 | 1.24 | 0.655 | 0.895 | 0.893 | 5.37 | 0.706 | 0.712 | 0.658 | 9.01 | 0.593 | 2.71 | 10.3 | 0.711 | 2.78
TVSSDYLHPQF [CCPG1_Y569_F566S_YF] | 0.444 | 0.495 | 0.514 | 0.779 | 1.8 | 0.753 | 0.411 | 0.877 | 0.457 | 0.927 | 0.823 | 0.404 | 0.538 | 0.527 | 0.848 | 0.704
TVVVPYEPPEV [TP53_Y220_S215T] | 0.458 | 0.512 | 0.528 | 1.35 | 1.08 | 0.62 | 0.549 | 0.89 | 0.537 | 1.16 | 0.548 | 0.475 | 0.439 | 1.08 | 0.626 | 0.701
TWEKPYECVQC [ZNF24_Y335_G331W] | 0.623 | 4.82 | 0.516 | 0.84 | 0.904 | 0.648 | 0.492 | 0.534 | 0.887 | 0.964 | 0.521 | 0.489 | 0.601 | 4.54 | 1.08 | 0.731
TWQSMYGCDVG [HLA-B_Y123_L119W] | 0.498 | 0.548 | 0.533 | 1.37 | 1.02 | 0.802 | 0.6 | 1.03 | 0.735 | 1.22 | 0.933 | 0.531 | 0.63 | 0.684 | 0.899 | 0.661
TYGQVYKGPHV [TNIK_Y40_R43P] | 7.7 | 0.398 | 0.534 | 0.826 | 0.68 | 0.468 | 0.618 | 0.666 | 9.04 | 0.751 | 0.586 | 12.4 | 0.633 | 0.579 | 0.702 | 0.755
TYGVLYKARNK [CDK2_Y19_V18L] | 2.86 | 0.438 | 0.394 | 0.565 | 0.539 | 0.483 | 0.689 | 0.519 | 3.29 | 0.691 | 0.398 | 2.88 | 0.532 | 0.406 | 0.962 | 0.624
VAFVYYKSIGP [ADGRL4_Y302] | 0.524 | 0.658 | 0.656 | 1.3 | 1.41 | 0.872 | 0.442 | 0.907 | 0.465 | 1.6 | 0.678 | 0.432 | 0.653 | 0.574 | 0.838 | 0.75
VASIFYTLVIP [OR8K3_Y277] | 0.661 | 2.79 | 1.72 | 1.45 | 1.83 | 1.63 | 5.43 | 0.882 | 0.945 | 1.49 | 0.978 | 0.502 | 0.769 | 1.01 | 1.22 | 1.51
VASSLYDIFAR [GLB1_Y294_L297F] | 8.55 | 3.12 | 0.637 | 0.927 | 1.09 | 0.714 | 11.4 | 1.25 | 6.38 | 0.948 | 1.46 | 6.66 | 1.81 | 0.714 | 1.02 | 0.884
VDEERYDIEGK [TNNI3_Y112_A116G] | 0.623 | 0.561 | 0.539 | 1.3 | 1.44 | 0.754 | 0.491 | 0.896 | 0.509 | 1.3 | 0.737 | 0.506 | 0.74 | 0.683 | 1.02 | 0.98
VDLIVYLWTNP [TK2_Y181_R183W] | 0.456 | 0.841 | 0.483 | 1.21 | 1.15 | 0.955 | 0.397 | 0.897 | 0.423 | 1.29 | 0.643 | 0.421 | 0.501 | 0.436 | 0.713 | 0.682
VDTFWYKLLKR [EPM2A_Y86_F88L] | 0.331 | 0.456 | 0.439 | 0.937 | 0.971 | 0.644 | 0.342 | 0.748 | 0.347 | 1.06 | 0.493 | 0.372 | 0.548 | 0.646 | 1.04 | 0.66
VGGRIYIDDAL [PKLR_Y218_G222A] | 0.486 | 0.547 | 0.542 | 0.767 | 0.86 | 0.612 | 0.402 | 0.737 | 0.419 | 1.06 | 0.51 | 0.462 | 0.497 | 0.415 | 0.694 | 0.772
VGTKRYMASEV [ACVRL1_Y375_P378S] | 0.398 | 0.38 | 0.411 | 0.533 | 0.564 | 0.333 | 0.389 | 0.509 | 0.513 | 0.602 | 0.406 | 0.4 | 0.364 | 0.45 | 1.06 | 0.599

Sequence | phosphorylation enrichment [1] | phosphorylation enrichment [2] | phosphorylation enrichment [3] | phosphorylation enrichment [4] | phosphorylation enrichment [5] | phosphorylation enrichment [6] | phosphorylation enrichment [7] | phosphorylation enrichment [8] | phosphorylation enrichment [9] | phosphorylation enrichment [10] | phosphorylation enrichment [11] | phosphorylation enrichment [12] | phosphorylation enrichment [13] | SH2 binding enrichment [14] | SH2 binding enrichment [15] | SH2 binding enrichment [16]
VISNAYVDLAP [HSD17B4_Y602] | 0.471 | 0.516 | 0.89 | 0.707 | 0.675 | 0.653 | 0.589 | 0.475 | 0.435 | 0.777 | 0.436 | 0.428 | 0.557 | 3.79 | 0.858 | 1.21
VKKKLYEEIDQ [CYP17A1_Y329] | 0.493 | 0.372 | 0.444 | 0.764 | 0.924 | 0.601 | 0.347 | 0.66 | 0.361 | 0.98 | 0.535 | 0.373 | 0.541 | 8.78 | 0.758 | 0.412
VLVSQYEKLDA [AMZ2_Y26_N30D] | 0.484 | 0.47 | 0.366 | 0.738 | 0.808 | 0.589 | 0.462 | 0.586 | 0.539 | 0.826 | 0.561 | 0.489 | 0.606 | 7.26 | 0.896 | 0.602
VNFDFYTVNLG [GFPT1_Y367_D366Y_YF] | 1.81 | 0.758 | 0.593 | 1.23 | 1.29 | 0.75 | 1.97 | 0.762 | 2.27 | 1.33 | 0.804 | 3.26 | 0.772 | 0.632 | 1.03 | 0.98
VNFQPYRKHKF [TEX37_Y28_D24N_YF] | 0.459 | 0.373 | 0.365 | 0.408 | 0.546 | 0.371 | 0.43 | 0.542 | 0.431 | 0.545 | 0.34 | 0.439 | 0.386 | 0.454 | 0.693 | 0.528
VNTMLYEKFTF [TEK_Y1108_T1106M_YF] | 6.73 | 13.7 | 0.621 | 0.917 | 1.29 | 0.697 | 8.45 | 2.38 | 6.07 | 1.22 | 6.33 | 5.93 | 4.34 | 0.71 | 1.01 | 0.736
VNYQPYRKHKY [TEX37_Y28_D24N] | 0.451 | 0.41 | 0.419 | 0.409 | 0.578 | 0.501 | 0.351 | 0.688 | 0.537 | 0.498 | 0.367 | 0.352 | 0.444 | 0.568 | 0.777 | 0.771
VPFARYLAMNK [HARS1_Y138] | 0.381 | 0.334 | 0.388 | 0.361 | 0.432 | 0.442 | 0.376 | 0.328 | 0.362 | 0.516 | 0.379 | 0.382 | 0.43 | 0.576 | 0.739 | 0.561
VPLLEYFRDIF [CDAN1_Y712_YF] | 0.566 | 0.584 | 0.687 | 1.41 | 1.42 | 0.943 | 0.56 | 1.06 | 0.52 | 1.6 | 0.523 | 0.543 | 0.715 | 1.13 | 1.44 | 1.38
VQVAFYTVMMN [SPATA17_Y84_M86V_YF] | 0.605 | 0.677 | 0.643 | 1.36 | 1.18 | 0.959 | 1.84 | 1.07 | 0.71 | 1.44 | 1.17 | 0.567 | 0.737 | 0.632 | 0.815 | 0.69
VRFMAYTDETC [F8_Y450_F455C] | 0.662 | 0.522 | 0.544 | 1.05 | 1.11 | 0.773 | 0.431 | 0.973 | 0.413 | 1.3 | 0.649 | 0.403 | 0.59 | 0.627 | 0.83 | 1.03
VSAPEYGPKLK [TBC1D14_Y46_L41V] | 0.465 | 0.452 | 0.476 | 0.556 | 0.644 | 0.504 | 0.394 | 0.469 | 0.369 | 0.678 | 0.452 | 0.437 | 0.391 | 0.497 | 0.876 | 0.667
VVEDGYEFFAK [PPP1CB_Y254] | 0.491 | 0.42 | 0.518 | 1.01 | 1.41 | 0.615 | 0.392 | 0.574 | 0.504 | 0.988 | 0.473 | 0.571 | 0.792 | 1.08 | 0.984 | 0.856
VYLGAYDRFLP [SLC22A5_Y486] | 5.32 | 1.88 | 0.948 | 0.74 | 1.25 | 0.803 | 4.72 | 1.2 | 4.49 | 0.992 | 1.82 | 4.5 | 2.53 | 0.727 | 0.862 | 3.12
VYYGSYSCPYG [NKAP_Y104_R106C] | 4.99 | 1.59 | 4.04 | 2.28 | 2.87 | 2.87 | 4.18 | 4.15 | 6.91 | 1.47 | 2.45 | 8.17 | 3.08 | 0.705 | 0.653 | 0.715
WHFTFYNELRV [ACTC1_Y93_H90Y_YF] | 0.635 | 0.578 | 0.542 | 1.2 | 1.42 | 1.07 | 0.392 | 1.27 | 0.42 | 1.5 | 0.784 | 0.413 | 0.671 | 0.535 | 0.782 | 0.483
